Article PMC10039853, “Increasing the melting temperature of VHH with the in silico free energy score” (Scientific Reports, 2023)
Residue numbers refer to the chain shown, from its start. Names and notes keep the numbering of the source.

B1: D3-L11 A24L (VHH)
VHH: DVQLVESGGGSVQAGGSLRLSCALSGSTDSIEYMTWFRQAPGKAREGVAALYTHTGNTYYTDSVKGRFTISQDKAKNMAYLRMDSVKSEDTAIYTCGATRKYVPVRFALDQSSYDYWGQGTQVTVSS
notes: as the VHH chain of Sm1 (D3-L11 wild type, PDB 6JB8) with A24L; SAG tripeptide linker before the C-terminal 6xHis tag; source: ExpiCHO, transient transfection, purified from supernatant (His Mag Sepharose excel); not shown: His6, C-terminal, kept
B2: D3-L11 A79Q (VHH)
VHH: B1 VHH with L24A, A79Q
notes: as the VHH chain of Sm1 (D3-L11 wild type, PDB 6JB8) with A79Q; SAG tripeptide linker before the C-terminal 6xHis tag; source: ExpiCHO, transient transfection, purified from supernatant (His Mag Sepharose excel); not shown: His6, C-terminal, kept
B3: D3-L11 A79I (VHH)
VHH: B1 VHH with L24A, A79I
notes: as the VHH chain of Sm1 (D3-L11 wild type, PDB 6JB8) with A79I; SAG tripeptide linker before the C-terminal 6xHis tag; source: ExpiCHO, transient transfection, purified from supernatant (His Mag Sepharose excel); not shown: His6, C-terminal, kept
B4: D3-L11 A79R (VHH)
VHH: B1 VHH with L24A, A79R
notes: as the VHH chain of Sm1 (D3-L11 wild type, PDB 6JB8) with A79R; SAG tripeptide linker before the C-terminal 6xHis tag; source: ExpiCHO, transient transfection, purified from supernatant (His Mag Sepharose excel); not shown: His6, C-terminal, kept
B5: D3-L11 G97F (VHH)
VHH: B1 VHH with L24A, G97F
notes: as the VHH chain of Sm1 (D3-L11 wild type, PDB 6JB8) with G97F; SAG tripeptide linker before the C-terminal 6xHis tag; source: ExpiCHO, transient transfection, purified from supernatant (His Mag Sepharose excel); not shown: His6, C-terminal, kept
B6: D3-L11 A79L (VHH)
VHH: B1 VHH with L24A, A79L
notes: as the VHH chain of Sm1 (D3-L11 wild type, PDB 6JB8) with A79L; SAG tripeptide linker before the C-terminal 6xHis tag; source: ExpiCHO, transient transfection, purified from supernatant (His Mag Sepharose excel); not shown: His6, C-terminal, kept
B7: D3-L11 G26I (VHH)
VHH: B1 VHH with L24A, G26I
notes: as the VHH chain of Sm1 (D3-L11 wild type, PDB 6JB8) with G26I; SAG tripeptide linker before the C-terminal 6xHis tag; source: ExpiCHO, transient transfection, purified from supernatant (His Mag Sepharose excel); not shown: His6, C-terminal, kept
B8: D3-L11 A79C (VHH)
VHH: B1 VHH with L24A, A79C
notes: as the VHH chain of Sm1 (D3-L11 wild type, PDB 6JB8) with A79C; SAG tripeptide linker before the C-terminal 6xHis tag; source: ExpiCHO, transient transfection, purified from supernatant (His Mag Sepharose excel); not shown: His6, C-terminal, kept
B9: D3-L11 A79F (VHH)
VHH: B1 VHH with L24A, A79F
notes: as the VHH chain of Sm1 (D3-L11 wild type, PDB 6JB8) with A79F; SAG tripeptide linker before the C-terminal 6xHis tag; source: ExpiCHO, transient transfection, purified from supernatant (His Mag Sepharose excel); not shown: His6, C-terminal, kept
B10: anti-lysozyme VHH D3-L11, wild type (VHH)
VHH: B1 VHH with L24A
notes: anti-hen egg lysozyme VHH D3-L11, 127 amino acids; A SAG tripeptide linker stands between the VHH and the C-terminal 6xHis tag; also called WT; source: ExpiCHO, transient transfection, purified from supernatant (His Mag Sepharose excel); not shown: His6, C-terminal, kept
B11: D3-L11 A79N (VHH)
VHH: B1 VHH with L24A, A79N
notes: as the VHH chain of Sm1 (D3-L11 wild type, PDB 6JB8) with A79N; SAG tripeptide linker before the C-terminal 6xHis tag; source: ExpiCHO, transient transfection, purified from supernatant (His Mag Sepharose excel); not shown: His6, C-terminal, kept
B12: D3-L11 A79H (VHH)
VHH: B1 VHH with L24A, A79H
notes: as the VHH chain of Sm1 (D3-L11 wild type, PDB 6JB8) with A79H; SAG tripeptide linker before the C-terminal 6xHis tag; source: ExpiCHO, transient transfection, purified from supernatant (His Mag Sepharose excel); not shown: His6, C-terminal, kept
B13: D3-L11 A79Y (VHH)
VHH: B1 VHH with L24A, A79Y
notes: as the VHH chain of Sm1 (D3-L11 wild type, PDB 6JB8) with A79Y; SAG tripeptide linker before the C-terminal 6xHis tag; source: ExpiCHO, transient transfection, purified from supernatant (His Mag Sepharose excel); not shown: His6, C-terminal, kept
B14: D3-L11 A79T (VHH)
VHH: B1 VHH with L24A, A79T
notes: as the VHH chain of Sm1 (D3-L11 wild type, PDB 6JB8) with A79T; SAG tripeptide linker before the C-terminal 6xHis tag; source: ExpiCHO, transient transfection, purified from supernatant (His Mag Sepharose excel); not shown: His6, C-terminal, kept
B15: D3-L11 A79V (VHH)
VHH: B1 VHH with L24A, A79V
notes: as the VHH chain of Sm1 (D3-L11 wild type, PDB 6JB8) with A79V; SAG tripeptide linker before the C-terminal 6xHis tag; source: ExpiCHO, transient transfection, purified from supernatant (His Mag Sepharose excel); not shown: His6, C-terminal, kept
B16: D3-L11 A79S (VHH)
VHH: B1 VHH with L24A, A79S
notes: as the VHH chain of Sm1 (D3-L11 wild type, PDB 6JB8) with A79S; SAG tripeptide linker before the C-terminal 6xHis tag; source: ExpiCHO, transient transfection, purified from supernatant (His Mag Sepharose excel); not shown: His6, C-terminal, kept
B17: D3-L11 A79M (VHH)
VHH: B1 VHH with L24A, A79M
notes: as the VHH chain of Sm1 (D3-L11 wild type, PDB 6JB8) with A79M; SAG tripeptide linker before the C-terminal 6xHis tag; source: ExpiCHO, transient transfection, purified from supernatant (His Mag Sepharose excel); not shown: His6, C-terminal, kept

Molecular target: T1, hen egg lysozyme (Gallus gallus (hen egg white), UniProt P00698)
T1 construct: hen egg lysozyme (HEL), the antigen of D3-L11; also in PDB 6JB8; The supplier is named for the ELISA only; also called HEL; antigen lysozyme; source: bought: Sigma-Aldrich, Cat No. L6876
T1 sequence (P00698 19-147): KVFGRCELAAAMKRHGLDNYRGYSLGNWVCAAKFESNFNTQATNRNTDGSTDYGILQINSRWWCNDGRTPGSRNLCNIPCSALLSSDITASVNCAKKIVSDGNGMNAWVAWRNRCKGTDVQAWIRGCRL
Test: SPR; Biacore T200; lysozyme immobilised on Sensor Chip CM5 by amine coupling (200 RU); VHH injected 300 s, dissociation 600 s in PBST (PBS, 0.005% Tween 20); 1:1 binding model; duplicate
Conditions: both partners purified

Row | Kd [pM] | Binder
1 | 43.6 ± 1.3 | B1
2 | 7.2 ± 0.03 | B2
3 | 4.92 ± 0.12 | B3
4 | 26 ± 0.1 | B4
5 | 6 ± 0.4 | B5
6 | 6.54 ± 0.03 | B6
7 | 25 ± 0.3 | B7
8 | 3.74 ± 0.03 | B8
9 | 12.1 ± 0.2 | B9
10 | 3.17 ± 0.19 | B10
11 | 8.04 ± 0.07 | B11
12 | 23.1 | B12
13 | 5.57 ± 0.04 | B13
14 | 13.1 ± 0.4 | B14
15 | 3.66 ± 0.13 | B15
16 | 11.7 | B16
17 | 6.91 ± 0.1 | B17
